Numbered stars: 1 amine (or outer) side, 2 acyl side, 3 side chain; on linkers, the order of the positions; unused ones are H or OH. Bridge positions count the residues as written; N and C are the ends. Side chains are listed from the residue outwards. Ends that are not written are not given here. * marks the point of attachment. C20 diacid = O=C(O)CCCCCCCCCCCCCCCCCCC(=O)*; γGlu = O=C(O)[C@H](CCC(=O)[*:2])N[*:1]; C14 diacid = O=C(O)CCCCCCCCCCCCC(=O)*
biological target: T1, human calcitonin receptor (human, UniProt P30988 25-474); assay: cell-based or functional assay
T1 sequence (looked up): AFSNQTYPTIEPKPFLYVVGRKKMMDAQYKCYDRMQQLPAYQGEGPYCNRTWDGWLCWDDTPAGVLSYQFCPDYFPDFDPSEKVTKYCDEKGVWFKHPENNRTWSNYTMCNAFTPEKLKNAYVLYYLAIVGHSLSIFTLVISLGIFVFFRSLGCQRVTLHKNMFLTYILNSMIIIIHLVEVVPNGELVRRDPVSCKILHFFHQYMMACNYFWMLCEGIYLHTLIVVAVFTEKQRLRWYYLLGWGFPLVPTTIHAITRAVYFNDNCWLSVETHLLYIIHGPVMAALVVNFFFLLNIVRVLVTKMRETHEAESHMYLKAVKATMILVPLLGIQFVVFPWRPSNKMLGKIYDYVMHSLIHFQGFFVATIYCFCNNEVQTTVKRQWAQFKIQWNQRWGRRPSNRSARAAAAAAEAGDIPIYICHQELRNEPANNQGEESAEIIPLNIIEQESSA

Binder | hCTR funct. EC50 (pM)
{C20 diacid-γGlu}-GRCNTATCATQRLAHFLRHSSPNFGAIPSSTNVGHNTY-NH2 (disulfide 3-8; SMILES CC[C@H](C)[C@H](NC(=O)[C@H](C)NC(=O)CNC(=O)[C@H](Cc1ccccc1)NC(=O)[C@H](CC(N)=O)NC(=O)[C@@H]1CCCN1C(=O)[C@H](CO)NC(=O)[C@H](CO)NC(=O)[C@H](Cc1c[nH]cn1)NC(=O)[C@H](CCCNC(=N)N)NC(=O)[C@H](CC(C)C)NC(=O)[C@H](Cc1ccccc1)NC(=O)[C@H](Cc1c[nH]cn1)NC(=O)[C@H](C)NC(=O)[C@H](CC(C)C)NC(=O)[C@H](CCCNC(=N)N)NC(=O)[C@H](CCC(N)=O)NC(=O)[C@@H](NC(=O)[C@H](C)NC(=O)[C@@H]1CSSC[C@H](NC(=O)[C@H](CCCNC(=N)N)NC(=O)CNC(=O)CC[C@H](NC(=O)CCCCCCCCCCCCCCCCCCC(=O)O)C(=O)O)C(=O)N[C@@H](CC(N)=O)C(=O)N[C@@H]([C@@H](C)O)C(=O)N[C@@H](C)C(=O)N[C@@H]([C@@H](C)O)C(=O)N1)[C@@H](C)O)C(=O)N1CCC[C@H]1C(=O)N[C@@H](CO)C(=O)N[C@@H](CO)C(=O)N[C@H](C(=O)N[C@@H](CC(N)=O)C(=O)N[C@H](C(=O)NCC(=O)N[C@@H](Cc1c[nH]cn1)C(=O)N[C@@H](CC(N)=O)C(=O)N[C@H](C(=O)N[C@@H](Cc1ccc(O)cc1)C(N)=O)[C@@H](C)O)C(C)C)[C@@H](C)O, N-terminal extension by Gly; synthetic peptide amide; also called compound 100) | 1730 pM
K([γGlu-C20 diacid])CNTATCATQRLAEFLRHSSPNFGAIPSSTNVGPETY-NH2 (disulfide 2-7; N-terminus assumed; SMILES CC[C@H](C)[C@H](NC(=O)[C@H](C)NC(=O)CNC(=O)[C@H](Cc1ccccc1)NC(=O)[C@H](CC(N)=O)NC(=O)[C@@H]1CCCN1C(=O)[C@H](CO)NC(=O)[C@H](CO)NC(=O)[C@H](Cc1c[nH]cn1)NC(=O)[C@H](CCCNC(=N)N)NC(=O)[C@H](CC(C)C)NC(=O)[C@H](Cc1ccccc1)NC(=O)[C@H](CCC(=O)O)NC(=O)[C@H](C)NC(=O)[C@H](CC(C)C)NC(=O)[C@H](CCCNC(=N)N)NC(=O)[C@H](CCC(N)=O)NC(=O)[C@@H](NC(=O)[C@H](C)NC(=O)[C@@H]1CSSC[C@H](NC(=O)[C@@H](N)CCCCNC(=O)CC[C@H](NC(=O)CCCCCCCCCCCCCCCCCCC(=O)O)C(=O)O)C(=O)N[C@@H](CC(N)=O)C(=O)N[C@@H]([C@@H](C)O)C(=O)N[C@@H](C)C(=O)N[C@@H]([C@@H](C)O)C(=O)N1)[C@@H](C)O)C(=O)N1CCC[C@H]1C(=O)N[C@@H](CO)C(=O)N[C@@H](CO)C(=O)N[C@H](C(=O)N[C@@H](CC(N)=O)C(=O)N[C@H](C(=O)NCC(=O)N1CCC[C@H]1C(=O)N[C@@H](CCC(=O)O)C(=O)N[C@H](C(=O)N[C@@H](Cc1ccc(O)cc1)C(N)=O)[C@@H](C)O)C(C)C)[C@@H](C)O, synthetic peptide amide) | 841 pM

biological target: T2, human amylin receptor (Amylin 3(a) receptor: human calcitonin receptor co-expressed with RAMP-3) (human, UniProt P30988 25-474; O60896 24-148, limits assumed); assay: SPA competition binding, displacement of 125I-rat amylin from membranes of BHK cells with human calcitonin receptor + RAMP-3 (Assay V)
T2 construct: whole, on cells; Used as cell membranes prepared from the Amylin 3(a)/CRE-luc BHK cells (Assay V); the complex is called the human amylin receptor; also called hAmylin-R; hAmylinR
T2 sequence (looked up) 1: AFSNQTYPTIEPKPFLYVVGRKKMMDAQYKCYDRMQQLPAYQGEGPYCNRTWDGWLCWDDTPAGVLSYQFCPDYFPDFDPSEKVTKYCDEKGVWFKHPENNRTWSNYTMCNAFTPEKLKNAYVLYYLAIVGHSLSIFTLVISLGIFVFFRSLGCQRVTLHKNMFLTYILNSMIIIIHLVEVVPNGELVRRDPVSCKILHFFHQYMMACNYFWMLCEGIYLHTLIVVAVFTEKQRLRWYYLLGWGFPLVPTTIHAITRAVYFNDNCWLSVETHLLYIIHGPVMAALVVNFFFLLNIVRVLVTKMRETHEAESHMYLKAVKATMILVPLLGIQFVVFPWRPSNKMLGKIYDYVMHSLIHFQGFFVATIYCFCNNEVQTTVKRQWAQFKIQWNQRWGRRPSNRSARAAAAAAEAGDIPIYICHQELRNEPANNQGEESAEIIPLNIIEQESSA
T2 sequence (looked up) 2: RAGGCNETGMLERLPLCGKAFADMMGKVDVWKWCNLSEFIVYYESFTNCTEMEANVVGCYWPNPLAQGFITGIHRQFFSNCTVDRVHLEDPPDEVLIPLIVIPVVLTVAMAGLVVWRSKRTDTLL
Method: The binding assay was performed using scintillation proximity assay (SPA) beads (RPNQ0001) from PerkinElmer and cell membranes from the Amylin 3(a)/CRE-luc cells (as described in Assay (II)) were used. Membranes were prepared in the following way; the cells were rinsed with PBS and incubated with Versene for approximately 5 min before harvesting. The cells were flushed with PBS and the cell-suspension was centrifuged for 5 min at 1000 rpm. Cells were homogenized (ultrathurrax) in a buffer containing 20 mM Na-HEPES and 10 mM EDTA (pH 7.4) and centrifuged at 20.000 rpm for 15 min. The resulting pellet was resuspended, homogenized and centrifuged (20.000 rpm, 15 min) in a buffer containing 20 mM Na-HEPES and 0.1 mM EDTA (pH 7.4, buffer 2). The resulting pellet was resuspended in buffer 2 and protein concentration was measured (BCA protein Assay, Pierce). The homogenate was kept cold during the whole procedure. The membranes were kept at −80° C. until use. The assay was performed in a 384 well Optiplate (PerkinElmer) in a total volume of 40 ul. Membranes were mixed with SPA beads. Final concentration of membranes 35 ng/μL final and SPA beads was 0.05 mg/well. Test-compounds were dissolved in DMSO and further diluted in assay buffer (50 mM Hepes, pH 7.4, 1 mM CaCl2, 5 mM MgCl₂, 0.1% OA and 0.02% Tween20). […] The final mixture was incubated with shaking at 400 rpm for 120 min at 25° C. prior to centrifugation (1500 rpm, 10 min). Samples were analyzed on TopCounter™ (Packard). The IC₅₀ was calculated using (one site binding competition analysis) GraphPad Prism5 as a measure of receptor affinity.

Binder | IC50
K([γGlu-γGlu-C20 diacid])CNTATCATQRLAEFLRHSSPNFGAIPSSTNVGPETY-NH2 (disulfide 2-7 (inferred), modifications are with respect to human amylin) | 0.121 nM
K([γGlu-C14 diacid])CNTATCATQRLANFLRHSSPNFGAIPSSTNVGHNTY-NH2 (disulfide 2-7; N-terminus assumed; SMILES CC[C@H](C)[C@H](NC(=O)[C@H](C)NC(=O)CNC(=O)[C@H](Cc1ccccc1)NC(=O)[C@H](CC(N)=O)NC(=O)[C@@H]1CCCN1C(=O)[C@H](CO)NC(=O)[C@H](CO)NC(=O)[C@H](Cc1c[nH]cn1)NC(=O)[C@H](CCCNC(=N)N)NC(=O)[C@H](CC(C)C)NC(=O)[C@H](Cc1ccccc1)NC(=O)[C@H](CC(N)=O)NC(=O)[C@H](C)NC(=O)[C@H](CC(C)C)NC(=O)[C@H](CCCNC(=N)N)NC(=O)[C@H](CCC(N)=O)NC(=O)[C@@H](NC(=O)[C@H](C)NC(=O)[C@@H]1CSSC[C@H](NC(=O)[C@@H](N)CCCCNC(=O)CC[C@H](NC(=O)CCCCCCCCCCCCC(=O)O)C(=O)O)C(=O)N[C@@H](CC(N)=O)C(=O)N[C@@H]([C@@H](C)O)C(=O)N[C@@H](C)C(=O)N[C@@H]([C@@H](C)O)C(=O)N1)[C@@H](C)O)C(=O)N1CCC[C@H]1C(=O)N[C@@H](CO)C(=O)N[C@@H](CO)C(=O)N[C@H](C(=O)N[C@@H](CC(N)=O)C(=O)N[C@H](C(=O)NCC(=O)N[C@@H](Cc1c[nH]cn1)C(=O)N[C@@H](CC(N)=O)C(=O)N[C@H](C(=O)N[C@@H](Cc1ccc(O)cc1)C(N)=O)[C@@H](C)O)C(C)C)[C@@H](C)O, modifications are with respect to human amylin) [N^ε1-[(4S)-4-carboxy-4-(13-carboxytridecanoylamino)butanoyl]-[Arg17,Pro21,Pro27,His34]-h-amylin] | 1.04 nM
{C20 diacid-γGlu}-GRCNTATCATQRLAHFLRHSSPNFGAIPSSTNVGHNTY-NH2 (disulfide 3-8; SMILES CC[C@H](C)[C@H](NC(=O)[C@H](C)NC(=O)CNC(=O)[C@H](Cc1ccccc1)NC(=O)[C@H](CC(N)=O)NC(=O)[C@@H]1CCCN1C(=O)[C@H](CO)NC(=O)[C@H](CO)NC(=O)[C@H](Cc1c[nH]cn1)NC(=O)[C@H](CCCNC(=N)N)NC(=O)[C@H](CC(C)C)NC(=O)[C@H](Cc1ccccc1)NC(=O)[C@H](Cc1c[nH]cn1)NC(=O)[C@H](C)NC(=O)[C@H](CC(C)C)NC(=O)[C@H](CCCNC(=N)N)NC(=O)[C@H](CCC(N)=O)NC(=O)[C@@H](NC(=O)[C@H](C)NC(=O)[C@@H]1CSSC[C@H](NC(=O)[C@H](CCCNC(=N)N)NC(=O)CNC(=O)CC[C@H](NC(=O)CCCCCCCCCCCCCCCCCCC(=O)O)C(=O)O)C(=O)N[C@@H](CC(N)=O)C(=O)N[C@@H]([C@@H](C)O)C(=O)N[C@@H](C)C(=O)N[C@@H]([C@@H](C)O)C(=O)N1)[C@@H](C)O)C(=O)N1CCC[C@H]1C(=O)N[C@@H](CO)C(=O)N[C@@H](CO)C(=O)N[C@H](C(=O)N[C@@H](CC(N)=O)C(=O)N[C@H](C(=O)NCC(=O)N[C@@H](Cc1c[nH]cn1)C(=O)N[C@@H](CC(N)=O)C(=O)N[C@H](C(=O)N[C@@H](Cc1ccc(O)cc1)C(N)=O)[C@@H](C)O)C(C)C)[C@@H](C)O, modifications are with respect to human amylin; also called compound 100) | 1.01 nM
{C20 diacid-γGlu}-GRCNTATCATQRLAHFLRHSSPNFGAIPSSTNVGSNTY-NH2 (disulfide 3-8; SMILES CC[C@H](C)[C@H](NC(=O)[C@H](C)NC(=O)CNC(=O)[C@H](Cc1ccccc1)NC(=O)[C@H](CC(N)=O)NC(=O)[C@@H]1CCCN1C(=O)[C@H](CO)NC(=O)[C@H](CO)NC(=O)[C@H](Cc1c[nH]cn1)NC(=O)[C@H](CCCNC(=N)N)NC(=O)[C@H](CC(C)C)NC(=O)[C@H](Cc1ccccc1)NC(=O)[C@H](Cc1c[nH]cn1)NC(=O)[C@H](C)NC(=O)[C@H](CC(C)C)NC(=O)[C@H](CCCNC(=N)N)NC(=O)[C@H](CCC(N)=O)NC(=O)[C@@H](NC(=O)[C@H](C)NC(=O)[C@@H]1CSSC[C@H](NC(=O)[C@H](CCCNC(=N)N)NC(=O)CNC(=O)CC[C@H](NC(=O)CCCCCCCCCCCCCCCCCCC(=O)O)C(=O)O)C(=O)N[C@@H](CC(N)=O)C(=O)N[C@@H]([C@@H](C)O)C(=O)N[C@@H](C)C(=O)N[C@@H]([C@@H](C)O)C(=O)N1)[C@@H](C)O)C(=O)N1CCC[C@H]1C(=O)N[C@@H](CO)C(=O)N[C@@H](CO)C(=O)N[C@H](C(=O)N[C@@H](CC(N)=O)C(=O)N[C@H](C(=O)NCC(=O)N[C@@H](CO)C(=O)N[C@@H](CC(N)=O)C(=O)N[C@H](C(=O)N[C@@H](Cc1ccc(O)cc1)C(N)=O)[C@@H](C)O)C(C)C)[C@@H](C)O, modifications are with respect to human amylin; also called compound 99) | 0.348 nM

— patent publication US20140087995A1 (published 2014)
